Source: paper PMC11693862 (Acta Biochimica et Biophysica Sinica, 2024)

How the values were obtained:
Test in all cases: crystal structure
[1] = biological target: SARS-CoV-2 M pro G15S (SARS-CoV-2)
[2] = biological target: SARS-CoV-2 M pro K90R (SARS-CoV-2)
[3] = biological target: SARS-CoV-2 M pro M49I (SARS-CoV-2)
[4] = biological target: SARS-CoV-2 M pro P132H (SARS-CoV-2)
[5] = biological target: SARS-CoV-2 M pro S46F (SARS-CoV-2)
[6] = biological target: SARS-CoV-2 M pro V186F (SARS-CoV-2)
[7] = biological target: SARS-CoV-2 M pro Y54C (SARS-CoV-2)

Substance: SARS-CoV-2 M pro G15S (enzyme)
- stoichiometry N [1]: 2

Substance: SARS-CoV-2 M pro K90R (enzyme)
- stoichiometry N [2]: 2

Substance: SARS-CoV-2 M pro M49I (enzyme)
- stoichiometry N [3]: 2

Substance: SARS-CoV-2 M pro P132H (enzyme)
- stoichiometry N [4]: 2

Substance: SARS-CoV-2 M pro S46F (enzyme)
- stoichiometry N [5]: 2

Substance: SARS-CoV-2 M pro V186F (enzyme)
- stoichiometry N [6]: 2

Substance: SARS-CoV-2 M pro Y54C (enzyme)
- stoichiometry N [7]: 2
